Tests used:
[1] = target: His6-VanSSC (full-length VanS sensor histidine kinase from Streptomyces coelicolor) (Streptomyces coelicolor) (UniProt Q9X942); assay: SEC; analytical gel filtration on Superose 12 10/300; 20 mM HEPES pH 7.8, 200 mM NaCl (legend: 300 mM NaCl), 0.075% DPC; elution volume compared with protein standards
[2] = target: His6-VanSSC (full-length VanS sensor histidine kinase from Streptomyces coelicolor) (Streptomyces coelicolor) (UniProt Q9X942); assay: native gel or EMSA

Substance: His6-VanSSC (full-length VanS sensor histidine kinase from Streptomyces coelicolor) (from UniProt Q9X942 1-364) (enzyme)
- stoichiometry N [1]: 2
- stoichiometry N [2]: 2
